The nanobody polyreactivity screen of Harvey et al. (2022)

Assay: yeast display, Sf9 membrane polyspecificity reagent, FACS + sequencing; frameworks hold sequencing errors
Summary of the method: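 Polyreactivity labels are assigned by the sorting gate from which each nanobody was recovered. The gates were low and high (top ~1%), set on anti-HA fluorescence for expression and streptavidin fluorescence for reagent binding. Before sorting, galactose-induced (36–48 hours) yeast display cells were stained for 1 hour at 4 °C with 10% biotinylated, detergent-solubilized Sf9 membrane reagent.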

Sequence	polyreactivity (PSR sort gate)
QVQLVESGGGLVQAGGSLRLSCAASGTTFGYYAMGSYRQPPGKDREFVAAISSSGGSTYYPDSVKGRFTISRDNAKNTVYLQMNSLKPEDTAVYYCARVGFPGFYWGQGTEVTVSS	high polyreactivity
QVQLVESGGGLVQAGGSLRLSCAASGTTFLINAMGWYRQAPGKERELVATISSGGSTYYADSVKGRFTISRDNAKNNVYLQMNSLKPEDTAVYFCAADPDRTAYDYWGQGTQVTVSS	low polyreactivity
QVQLVESGGGLVQAGGSLRLSCAASGTTFPAYAMGWYRQAPGKERELVAVINLSGSTYYADSVKGRFTISRDNAKNTVYLQMNSLKPEDTAVYYCNARQYDYYRYGYWGQGTQVTVSS	low polyreactivity
QVQLVESGGGLVQAGGSLRLSCAASGTTFRLYAMGWSIQAPGKERELVAAISRSGRTNYADSVKGSFTISRDNAKNTVYLQLNSLKPEDTAVYYCATVPGKCGDYWGQGTQVTVSS	high polyreactivity
QVQLVESGGGLVQAGGSLRLSCAASGTTFVSYSMGWYRQAPGKEREFVATISISGTSTYYADSVKGRFTISRDNAKNTVYLQMISLKPEDTAVYYCAARLRRRGATQFYRYDYWGQGTQVTVSS	high polyreactivity
QVQLVESGGGLVQAGGSLRLSCAASGTTFVYYAMVWYRQAPGKERYLVAAITWNGGSTYYADSVKGRFTISRDNAKNTVYFQMNSLKPEDTAVYYCNAAFRAGAVYGYYWGQGTQVTVSS	high polyreactivity
QVQLVESGGGLVQAGGSLRLSCAASGTTFWRYTMGWYRQAPGKERELVAAISTRGGSTTYADSVKGRFTISRDKAKNNVYLQMNSLKPEDTAVYYCNADGYRGYYGRNKSKYDYWGQGTQVTVSS	high polyreactivity
QVQLVESGGGLVQAGGSLRLSCAASGTTFYSNAMGWYRQAPGKEREFVAAISYSGGSTYYADSVKGRFTISRDNAKYTVYLQMNSLKPEDTAVYYCNARNWYYDGDYWVQGTQVTVSS	high polyreactivity
QVQLVESGGGLVQAGGSLRLSCAASGTTIKYYAMGWSRQAPGKERELVARITSDGGSTFYADSVKGRFTISRDNAKNTVYLQMNSLKPEDTAVYYCNTAYAFRHWWFYPMDYWGQGTQVTVSS	high polyreactivity
QVQLVESGGGLVQAGGSLRLSCAASGTTLGYYTMGWYRQAPGKERELVAAIDWSGGSTYYADSVKGRFTISRDNAKNTVYLQMNSLKPEDTAVYYCNAEPWDPFYSPGRGGMDYWGQGTQVNVSS	low polyreactivity
QVQLVESGGGLVQAGGSLRLSCAASGVIFESNAMAWYRQAPGKERELVAANTKRGGSTYYADSVKGRFTISRDNAKNTVYLQMKSLKPEDTAVYYCNALGYWRRVVDGFDNWGQGTQVTVSS	high polyreactivity
QVQLVESGGGLVQAGGSLRLSCAASGVIFKAYAMGWYRPAPGKERELVAAITSSGGRTYYADSVKGRFTISRDNAKNTVYLQMNSLKPEDSAVYYCNARGVLRTSLYRYDYWGQGTQLTVSS	high polyreactivity
QVQLVESGGGLVQAGGSLRLSCAASGVIFRRYAMGWYREAPGKERELVAAMSSSGGRTTYADSVNGRFTISRDNAKNTVYIQMNSLKPEDTAVYYCNADLWPGNHDGYWGQGTQVTVSS	low polyreactivity
QVQLVESGGGLVQAGGSLRLSCAASGVTFGGYAMGWYRQAPGKERELVAAISGSGGRTYYADSVKVRFTISRDNAMNTVYLQMNSLKPEDTAVYYCAADRASPYLENYWGQGTQVTVSS	low polyreactivity
QVQLVESGGGLVQAGGSLRLSCAASGYFDRNAMGWDRQAPGKERELVAAITVGGSTNYADSVKGRFTISRDNAKNSVYVQMNSLKPEDTAVYYCAADRGHTILHGGYWGQGTQVTVSS	low polyreactivity
QVQLVESGGGLVQAGGSLRLSCAASGYIFAGYALGWYRQAPGKERELVARISRRGGITYYADSVKGRFTISRDNAKNTVYLQMNSLKPEDTAVYYCNGLGQSSSYDYWGQGTQVTVSS	high polyreactivity

Sequence	polyreactivity (PSR sort gate)
QVQLVESGGGLVQAGGSLRLSCAASGYIFAWYAMGWYRQAPGIVRELVAAISRSGGSTYYADSVKGRFTISRDNAKHTDYLQMNSLKPEDTAVYYCNAYSAYDEYDYWGQGTQVTVSS	high polyreactivity
QVQLVESGGGLVQAGGSLRLSCAASGYIFAYTAMGWYRQAPGKEREFVAVITRSDDSTYADSVKGRFTISRDNAKNTVYLQMNSLKPEDTAVYYCAAQPFVIDGGYRGDYWGQGTQVTVSS	low polyreactivity
QVQLVESGGGLVQAGGSLRLSCAASGYIFAYYAMGWYRQEPGKERELVADIRGRGGSTYYADSVKGRFTISRDNAKNTVYLQMNSLKTEDTAVYYCARRSPNPYSIYYYWGQGTQVTVSS	high polyreactivity
QVQLVESGGGLVQAGGSLRLSCAASGYIFDIYAMGWYRQAPGKERELVAVITRSGGGTYYADSVKGRFTISRDNAKKTVYLQMNSLKPEDTAVYYCAAESYVYGGSDYDYWGQGTQVTVSS	low polyreactivity
QVQLVESGGGLVQAGGSLRLSCAASGYIFDRYAMGWSRPAPGKERELVAAISGRGGSTYYADSVKGRFTISLDNAKNTVYLQMNSLKPEDTAVYYCNALVQGKEYYWGQGTQVTVSS	high polyreactivity
QVQLVESGGGLVQAGGSLRLSCAASGYIFDRYAMGWYRPAPGKERELVAAISVGGGTTYYADSVKGRFTISRDNAKNTVYLQMNSLKPEDTAVYYCAARSDSYAPRRGYWGQGTQVTVSS	high polyreactivity
QVQLVESGGGLVQAGGSLRLSCAASGYIFDYYDMGWYRQAPGKERELVAAINGSGGDTYYADSVKGRFTISRDNANNTVYLEMNSLKPEDTAVYYCAADLVYYSGWGYAFNYWGQGTQVNVSS	high polyreactivity
QVQLVESGGGLVQAGGSLRLSCAASGYIFEEYDMGWYRQAPGKERELVAAISASGGSTYYADSVKGRFTISRDNAKNTVYLQMNSLKPEDTAVYYCAADAVREVYGSWDDYWGQGTQVTVSS	low polyreactivity
QVQLVESGGGLVQAGGSLRLSCAASGYIFEIYAMGWYRQAPGKERELVAAISTRGGRTYYADSVKGRFTISRDNAKNTVYLEMKSLKPEDTAVYYCARESSIVPYGYWGQGTQVTVSS	low polyreactivity
QVQLVESGGGLVQAGGSLRLSCAASGYIFGGYAMGWYRQATGKERELVPGISIGVGSTYYADSVKGRFTISRDNAKNTVYLQMNSLKPEDSAVYYCNRVSVGYDYWGQGTQVTVSS	low polyreactivity
QVQLVESGGGLVQAGGSLRLSCAASGYIFGRNAMGWYRQAPGKERELVAVISSRGSRTYYADSVKGRFTISRDNAKNTVYLQMNSLKPEDTAVYYCAVRGVVNFDYWGQGTQVTVSS	high polyreactivity
QVQLVESGGGLVQAGGSLRLSCAASGYIFGSNAMGWYRQAPGKDRELVAGISNNGGSTYYADSVKGRFTISRDKAKNTVYLQMNSLKPEDTAVYYCARDPNDDNSFPYDYWGQGTQVTVSS	low polyreactivity
QVQLVESGGGLVQAGGSLRLSCAASGYIFGSYTMGWYRQAPGKERELVAGISRRGGGTYYADSVKGRFTMSRDNAKNNVYLQMNSLIPEDTAVYYCAAEVITIGLYRYGFWGQGTQVSVSS	high polyreactivity
QVQLVESGGGLVQAGGSLRLSCAASGYIFGSYVMGGYRQAPGKERELVAAITRIGASTYYADSVKGRFTISRDNAKNTVYLQMNSLKPEDTAVYYCATDQGGYYENDYWGQGTQVTVSS	low polyreactivity
QVQLVESGGGLVQAGGSLRLSCAASGYIFGTDAMGRYRQAPGKERELVAAISSTGRTYYADSVKGRFTISRDNAKNTVYLQMNSLKPEDTAVYYCAADVRTPSEGYDYWGQGTQVTVSS	high polyreactivity
QVQLVESGGGLVQAGGSLRLSCAASGYIFGVNALGWYRQAPGKERELVAAIDSGSRTYYADSVKGRFTISRDNAKNTVYLQMNSLKPEDTAVYYFATTFYVSYGGGYYTIWYDYWGQGTQVTVSS	low polyreactivity
